Reference: patent US20240301049A1 (Ablynx, published 2024)

T1: cyno IL-6 (cynomolgus monkey, UniProt P79341 28-212, limits assumed)
T1 sequence (looked up): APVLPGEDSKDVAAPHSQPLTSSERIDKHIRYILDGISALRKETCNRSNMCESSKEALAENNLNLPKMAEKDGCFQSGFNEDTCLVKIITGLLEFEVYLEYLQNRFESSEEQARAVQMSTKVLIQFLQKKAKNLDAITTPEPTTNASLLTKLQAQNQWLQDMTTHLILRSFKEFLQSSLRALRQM

B1: F027201040 (VHH)
VHH: EVQLVESGGGVVQPGGSLRLSCAASGFTLAYYAIGWFRQAPGKEREGVSCISGSVGTTYYADSVKGRFTISRDNAKNTVYLQMNSLRPEDTALYYCVRSSWFDCGVQGRDLGNEYDYRGQGTLVTVSS
notes: also called IL6006B12 (L11V, S52aG, S60A, K83R, V89L)
B2: F027201060 (bispecific antibody)
chain: EVQLVESGGGVVQPGGSLRLSCAASGFTLAYYAIGWFRQAPGKEREGVSCISGSVGTTYYADSVKGRFTISRDNAKNTVYLQMNSLRPEDTALYYCVRSSWFDCGVQGRDLGNEYDYRGQGTLVTVSSGGGGSGGGSEVQLVESGGGVVQPGGSLRLSCAASGFTFRSFGMSWVRQAPGKGPEWVSSISGSGSDTLYADSVKGRFTISRDNSKNTLYLQMNSLRPEDTALYYCTIGGSLSRSSQGTLVTVSSGGGGSGGGSEVQLVESGGGVVQPGGSLRLSCAASGFSLDYYGVGWFRQAPGKEREGVSCISSSEGDTYYADSVKGRFTISRDNAKNTVYLQMNSLRPEDTALYYCATDLSDYGVCSRWPSPYDYWGQGTLVKVSSGGGGSGGGSEVQLVESGGGVVQPGGSLRLSCTASGFTFSTADMGWFRQAPGKGREFVARISGIDGTTYYDEPVKGRFTISRDNSKNTVYLQMNSLRPEDTALYYCRSPRYADQWSAYDYWGQGTLVKVSS
B3: F027201061 (bispecific antibody)
chain: EVQLVESGGGVVQPGGSLRLSCTASGFTFSTADMGWFRQAPGKGREFVARISGIDGTTYYDEPVKGRFTISRDNSKNTVYLQMNSLRPEDTALYYCRSPRYADQWSAYDYWGQGTLVKVSSGGGGSGGGSEVQLVESGGGVVQPGGSLRLSCAASGFTLAYYAIGWFRQAPGKEREGVSCISGSVGTTYYADSVKGRFTISRDNAKNTVYLQMNSLRPEDTALYYCVRSSWFDCGVQGRDLGNEYDYRGQGTLVTVSSGGGGSGGGSEVQLVESGGGVVQPGGSLRLSCAASGFTFRSFGMSWVRQAPGKGPEWVSSISGSGSDTLYADSVKGRFTISRDNSKNTLYLQMNSLRPEDTALYYCTIGGSLSRSSQGTLVTVSSGGGGSGGGSEVQLVESGGGVVQPGGSLRLSCAASGFSLDYYGVGWFRQAPGKEREGVSCISSSEGDTYYADSVKGRFTISRDNAKNTVYLQMNSLRPEDTALYYCATDLSDYGVCSRWPSPYDYWGQGTLVKVSS
B4: F027200925 (bispecific antibody)
chain: DVQLVESGGGVVQPGGSLRLSCTASGFTFSTADMGWFRQAPGKGREFVARISGIDGTTYYDEPVKGRFTISRDNSKNTVYLQMNSLRPEDTALYYCRSPRYADQWSAYDYWGQGTLVTVSSGGGGSGGGSEVQLVESGGGVVQPGGSLRLSCAASGIIFSINAMGWYRQAPGKQRELVADIFPFGSTEYADSVKGRFTISRDNAKNTVYLQMNSLRPEDTALYYCHSYDPRGDDYWGQGTLVTVSSGGGGSGGGSEVQLVESGGGVVQPGGSLRLSCAASGFTFRSFGMSWVRQAPGKGPEWVSSISGSGSDTLYADSVKGRFTISRDNSKNTLYLQMNSLRPEDTALYYCTIGGSLSRSSQGTLVTVSSGGGGSGGGSEVQLVESGGGVVQPGGSLRLSCAASGRTFSSYVMGWFRQAPGKEREFVSTINWAGSRGYYADSVKGRFTISRDNAKNTVYLQMNSLRPEDTALYYCAASAGGFLVPRVGQGYDYWGQGTLVKVSSA
B5: F027200927 (bispecific antibody)
chain: DVQLVESGGGVVQPGGSLRLSCTASGFTFSTADMGWFRQAPGKGREFVARISGIDGTTYYDEPVKGRFTISRDNSKNTVYLQMNSLRPEDTALYYCRSPRYADQWSAYDYWGQGTLVTVSSGGGGSGGGSEVQLVESGGGVVQPGGSLRLSCAASGRTFSSYVMGWFRQAPGKEREFVSTINWAGSRGYYADSVKGRFTISRDNAKNTVYLQMNSLRPEDTALYYCAASAGGFLVPRVGQGYDYWGQGTLVTVSSGGGGSGGGSEVQLVESGGGVVQPGGSLRLSCAASGFTFRSFGMSWVRQAPGKGPEWVSSISGSGSDTLYADSVKGRFTISRDNSKNTLYLQMNSLRPEDTALYYCTIGGSLSRSSQGTLVTVSSGGGGSGGGSEVQLVESGGGVVQPGGSLRLSCAASGFSLDYYGVGWFRQAPGKEREGVSCISSSEGDTYYADSVKGRFTISRDNAKNTVYLQMNSLRPEDTALYYCATDLSDYGVCSRWPSPYDYWGQGTLVKVSSA

These binders were tested against T2, human IL-6 (human, UniProt P05231 30-212) (assay: SPR).
T2 construct: also called hIL-6

Q: How did the koff turn out when B1 was run?
A: 5.9e-05 s⁻¹

Each binder was assayed against T2, human IL-6 (assay: cell-based or functional assay).

Q: With B2 as the binder, how does the “IC50 hIL-6 TF1 proliferation assay” value read?
A: 0.127 nM

Q: For B3, which “IC50 hIL-6 TF1 proliferation assay” value is on record?
A: 0.147 nM

Q: For B4, which “IC50 hIL-6 TF1 proliferation assay” value is on record?
A: 0.61 nM

Q: How did the “IC50 hIL-6 TF1 proliferation assay” value turn out when B5 was run?
A: 0.0712 nM

The binders below were run against T1, cyno IL-6 (assay: cell-based or functional assay).

Q: For B2, which “Ratio IC50 cyno IL-6/hIL-6” value is on record?
A: 0.4 ratio

Q: B3 was tested. Which “Ratio IC50 cyno IL-6/hIL-6” value did it give?
A: 0.7 ratio

Q: How did the “Ratio IC50 cyno IL-6/hIL-6” value turn out when B4 was run?
A: 2.8 ratio

Q: For B5, which “Ratio IC50 cyno IL-6/hIL-6” value is on record?
A: 1 ratio

The binders below were run against T3, human TNF-α (human, UniProt P01375 77-233) (assay: cell-based or functional assay).
T3 sequence (P01375 77-233 limits assumed): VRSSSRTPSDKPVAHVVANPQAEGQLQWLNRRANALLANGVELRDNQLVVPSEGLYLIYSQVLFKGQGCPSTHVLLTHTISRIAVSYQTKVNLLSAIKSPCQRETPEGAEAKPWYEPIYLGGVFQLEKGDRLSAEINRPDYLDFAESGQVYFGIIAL

Q: With B2 as the binder, how does the “IC50 hTNF-α Nfkb assay” value read?
A: 0.0999 nM

Q: Which “IC50 hTNF-α Nfkb assay” value does the source give for B3 here?
A: 0.0712 nM

Q: B4 was tested. Which “IC50 hTNF-α Nfkb assay” value did it give?
A: 0.0643 nM

Q: Which “IC50 hTNF-α Nfkb assay” value does the source give for B5 here?
A: 0.0593 nM

These binders were tested against T4, cyno TNF-α (cynomolgus monkey, UniProt P79337 77-233) (assay: cell-based or functional assay).
T4 sequence (P79337 77-233 limits assumed): as the sequence (P01375 77-233 limits assumed) above, with L37V, R44T, T72N, R138L counted along it

Q: For B2, which “Ratio IC50 cyno TNFα/hTNFα” value is on record?
A: 1.8 ratio

Q: Which “Ratio IC50 cyno TNFα/hTNFα” value does the source give for B3 here?
A: 2.5 ratio

Q: For B4, which “Ratio IC50 cyno TNFα/hTNFα” value is on record?
A: 4.1 ratio

Q: Which “Ratio IC50 cyno TNFα/hTNFα” value does the source give for B5 here?
A: 4.3 ratio

Molecular target: T2, human IL-6
Assay: cell-based or functional assay
Remark: another data set of the same source

Q: How did the “Ratio IC50 reference anti-IL-6 mAb1/Nb” value turn out when B2 was run?
A: 2.3 ratio

Q: What about the “hIL-6 TF1 proliferation assay (IC50, pM)” value of the same binder?
A: 127 pM

Q: With B3 as the binder, how does the “Ratio IC50 reference anti-IL-6 mAb1/Nb” value read?
A: 2.7 ratio

Q: What about the “hIL-6 TF1 proliferation assay (IC50, pM)” value of the same binder?
A: 147 pM

Q: How did the “Ratio IC50 reference anti-IL-6 mAb1/Nb” value turn out when B4 was run?
A: 14.8 ratio

Q: And the “hIL-6 TF1 proliferation assay (IC50, pM)” value?
A: 610 pM

Q: What does the source list for B5?
A: Ratio IC50 reference anti-IL-6 mAb1/Nb: 1.8 ratio; hIL-6 TF1 proliferation assay (IC50, pM): 71 pM

Molecular target: T1, cyno IL-6
Assay: cell-based or functional assay
Remark: another data set of the same source

Q: B2 was tested. Which “cyno IL-6 TF1 proliferation assay (IC50, pM)” value did it give?
A: 49 pM

Q: With B3 as the binder, how does the “cyno IL-6 TF1 proliferation assay (IC50, pM)” value read?
A: 101 pM

Q: With B4 as the binder, how does the “cyno IL-6 TF1 proliferation assay (IC50, pM)” value read?
A: 1710 pM

Q: B5 was tested. Which “cyno IL-6 TF1 proliferation assay (IC50, pM)” value did it give?
A: 72 pM

Molecular target: T3, human TNF-α
Assay: cell-based or functional assay
Remark: another data set of the same source

Q: Which “Ratio IC50 reference anti-TNF-α mAb/Nb” value does the source give for B2 here?
A: 0.67 ratio

Q: And the “hTNF-α Nfkb assay (IC50, pM)” value?
A: 100 pM

Q: What does the source list for B3?
A: Ratio IC50 reference anti-TNF-α mAb/Nb: 0.91 ratio; hTNF-α Nfkb assay (IC50, pM): 71 pM

Q: For B4, which “Ratio IC50 reference anti-TNF-α mAb/Nb” value is on record?
A: 1.43 ratio

Q: And the “hTNF-α Nfkb assay (IC50, pM)” value?
A: 64 pM

Q: Which “Ratio IC50 reference anti-TNF-α mAb/Nb” value does the source give for B5 here?
A: 4.2 ratio

Q: And the “hTNF-α Nfkb assay (IC50, pM)” value?
A: 59 pM

Molecular target: T4, cyno TNF-α
Assay: cell-based or functional assay
Remark: another data set of the same source

Q: For B2, which “cyno TNF-α NFkb assay (IC50, pM)” value is on record?
A: 176 pM

Q: B3 was tested. Which “cyno TNF-α NFkb assay (IC50, pM)” value did it give?
A: 176 pM

Q: Which “cyno TNF-α NFkb assay (IC50, pM)” value does the source give for B4 here?
A: 265 pM

Q: With B5 as the binder, how does the “cyno TNF-α NFkb assay (IC50, pM)” value read?
A: 254 pM
